Measurements reported in US20110300138A1 (published 2011).

Experiments:
[1] = target: TSH receptor (TSHR), full length human, coated on tubes (human) (UniProt P16473); assay: inhibition of 125I-TSH binding to TSHR coated tubes; 100 µg/mL, diluted in HBD serum pool
[2] = target: thyroid stimulating hormone receptor (TSHR), full length human TSHR (human) (UniProt P16473); assay: TSH-biotin competition ELISA, TSHR coated wells; negative control, 1 µg/mL in assay buffer
[3] = target: thyroid stimulating hormone receptor (TSHR), full length human TSHR (human) (UniProt P16473); assay: TSH-biotin competition ELISA, TSHR coated wells; negative control, 100 µg/mL in assay buffer
[4] = target: thyroid stimulating hormone receptor (TSHR), full length human TSHR (human) (UniProt P16473); assay: TSH-biotin competition ELISA, TSHR coated wells; negative control, 0.01 µg/mL in assay buffer
[5] = target: human TSH receptor (full length) coated on ELISA plate wells (human) (UniProt P16473); assay: TSH-biotin binding inhibition ELISA, TSHR coated wells; 100 µg/mL in assay buffer; negative control MAb
[6] = target: human thyroid stimulating hormone receptor (TSHR), full length (human) (UniProt P16473); assay: 125I-K1-70 Fab (competitor) binding to TSHR coated tubes; negative control MAb 0.01 µg/mL in assay buffer
[7] = target: TSH receptor (TSHR) coated on tubes (human) (UniProt P16473); assay: inhibition of 125I-K1-70 IgG binding to TSHR coated tubes; negative control 1 µg/mL in HBD serum pool; duplicate determination
[8] = target: TSH receptor (TSHR), full length human, coated on tubes (human) (UniProt P16473); assay: inhibition of 125I-K1-18 IgG binding to TSHR coated tubes; competitor 125I-K1-18 IgG; negative control sample at 0.01 µg/mL in HBD serum
[9] = target: TSH receptor (full length human TSHR) (human) (UniProt P16473); assay: competition ELISA: inhibition of M22 Fab-peroxidase (competitor) binding to TSHR coated wells; negative control at 10 µg/mL diluted in assay buffer
[10] = target: TSH receptor (full length human TSHR) (human) (UniProt P16473); assay: competition ELISA: inhibition of M22 Fab-peroxidase (competitor) binding to TSHR coated wells; negative control at 1 µg/mL diluted in HBD serum pool
[11] = target: TSH receptor (TSHR), full length human, coated on tubes (human) (UniProt P16473); assay: inhibition of 125I-K1-18 IgG binding to TSHR coated tubes; competitor 125I-K1-18 IgG; sample at 0.1 µg/mL in HBD serum
[12] = target: TSH receptor (TSHR), full length human, coated on tubes (human) (UniProt P16473); assay: inhibition of 125I-K1-18 IgG binding to TSHR coated tubes; competitor 125I-K1-18 IgG; sample at 100 µg/mL in HBD serum
[13] = target: TSH receptor (TSHR), full length human, coated on tubes (human) (UniProt P16473); assay: inhibition of 125I-K1-18 IgG binding to TSHR coated tubes; competitor 125I-K1-18 IgG; sample at 100 µg/mL in assay buffer
[14] = target: TSH receptor (full length human TSHR) (human) (UniProt P16473); assay: competition ELISA: inhibition of M22 Fab-peroxidase (competitor) binding to TSHR coated wells; test sample at 0.1 µg/mL diluted in HBD serum pool
[15] = target: TSH receptor (full length human TSHR) coated on tubes (human) (UniProt P16473); assay: 125I-TSH binding inhibition read against NIBSC 90/672; 30 ng/mL, in serum
[16] = target: human TSH receptor (full length) coated on ELISA plate wells (human) (UniProt P16473); assay: TSH-biotin binding inhibition ELISA, TSHR coated wells; 100 µg/mL in assay buffer
[17] = target: thyroid stimulating hormone receptor (TSHR), full length, coated on tubes (human) (UniProt P16473); assay: inhibition of 125I-TSH binding, TSHR coated tubes; antibody 0.1 µg/mL in HBD serum pool
[18] = target: TSH receptor (TSHR), full length human, coated on tubes (human) (UniProt P16473); assay: inhibition of 125I-TSH binding to TSHR coated tubes; 10 µg/mL, diluted in HBD serum pool
[19] = target: TSH receptor (TSHR) coated on tubes (human) (UniProt P16473); assay: inhibition of 125I-K1-70 IgG binding to TSHR coated tubes; sample 0.1 µg/mL in assay buffer
[20] = target: thyroid stimulating hormone receptor (full length human TSHR) (human) (UniProt P16473); assay: ELISA, inhibition of TSH-biotin binding to TSHR coated wells; 1 µg/mL, diluted in assay buffer
[21] = target: thyroid stimulating hormone receptor (full length human TSHR) (human) (UniProt P16473); assay: ELISA, inhibition of TSH-biotin binding to TSHR coated wells; 10 µg/mL, diluted in HBD serum pool
[22] = target: human TSH receptor (full length) coated on ELISA plate wells (human) (UniProt P16473); assay: TSH-biotin binding inhibition ELISA, TSHR coated wells; 10 µg/mL in assay buffer + 100 µg/mL 5B3 IgG
[23] = target: human TSH receptor (full length) coated on ELISA plate wells (human) (UniProt P16473); assay: TSH-biotin binding inhibition ELISA, TSHR coated wells; 0.1 µg/mL in assay buffer + 100 µg/mL 5B3 IgG
[24] = target: TSH receptor (TSHR), full length human, coated on tubes (human) (UniProt P16473); assay: inhibition of 125I-K1-18 IgG (competitor) binding to TSHR coated tubes; test sample at 0.1 µg/mL in assay buffer
[25] = target: thyroid stimulating hormone receptor (full length human TSHR) (human) (UniProt P16473); assay: ELISA: inhibition of M22 Fab-peroxidase (competitor) binding to TSHR coated wells; 100 µg/mL, diluted in assay buffer
[26] = target: thyroid stimulating hormone receptor (full length human TSHR) (human) (UniProt P16473); assay: ELISA: inhibition of M22 Fab-peroxidase (competitor) binding to TSHR coated wells; 10 µg/mL, diluted in HBD serum pool

5B3 IgG (antibody)
Inhibition of binding (%) [1]: -3.9%
Inhibition of binding (%) [2]: -8.3%
Inhibition of binding (%) [3]: 1.3%
Inhibition of binding (%) [4]: -5.9%
% inhibition of TSH-biotin binding [5]: 8.3%
Inhibition of binding (%) [6]: -1.7%
Inhibition of binding (%) [7]: 0%
Inhibition of binding (%) [8]: -8.1%
Inhibition of binding (%) [9]: 2.4%
Inhibition of binding (%) [10]: 9.7%

9D33 IgG (antibody)
Inhibition of binding (%) [11]: 33.8%
Inhibition of binding (%) [12]: 68.7%
Inhibition of binding (%) [13]: 72.5%
Inhibition of binding (%) [14]: 24.1%

M22 IgG (antibody)
units/L [15]: 4.3 units/L

B1: 5C9 IgG (antibody, from another filing, V domains shown)
VH: EVQLVESGGGLIQPGGSLRLSCAASGFTVSSNYMSWVRQAPGKGLEWVSVTYSGGSTSYADSVKGRFTISRDNSKNTLYLQMNSLRAEDTAVYYCARGGRYCSSISCYARSGCDYWGQGTLVTVSS
VL: AIQMTQSPSSLSASVGDRVTITCRASQSISNYLNWYQQKPGKAPKLLIYAASSLQSGVPSRFSGSGSGTDFTLTISSLQPEDFATYYCQQSYSSPSTTFGQGTKLEIK
% inhibition of TSH-biotin binding [16]: 91.2%
Inhibition of binding (%) [17]: 16.2%
Inhibition of binding (%) [18]: 39.9%
Inhibition of binding (%) [19]: 24.6%
Inhibition of binding (%) [20]: 31.4%
Inhibition of binding (%) [21]: 37.4%
% inhibition of TSH-biotin binding [22]: 63.9%
% inhibition of TSH-biotin binding [23]: 36.3%
Inhibition of binding (%) [24]: 33.4%
Inhibition of binding (%) [25]: 24.6%
Inhibition of binding (%) [26]: 13%
